# T1: FcγRIIb extracellular domain with C-terminal His tag (human, UniProt P31994 43-217)
# T1 construct: extracellular domain; also called FcgRIIb
# T1 sequence (looked up): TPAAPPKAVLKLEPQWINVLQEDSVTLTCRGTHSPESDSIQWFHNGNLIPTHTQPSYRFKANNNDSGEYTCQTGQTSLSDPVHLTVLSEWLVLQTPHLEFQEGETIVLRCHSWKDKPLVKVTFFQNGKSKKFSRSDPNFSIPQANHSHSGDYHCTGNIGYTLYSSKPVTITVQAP
# T2: FcγRIIa type R (human, UniProt P12318 34-217)
# T2 chain: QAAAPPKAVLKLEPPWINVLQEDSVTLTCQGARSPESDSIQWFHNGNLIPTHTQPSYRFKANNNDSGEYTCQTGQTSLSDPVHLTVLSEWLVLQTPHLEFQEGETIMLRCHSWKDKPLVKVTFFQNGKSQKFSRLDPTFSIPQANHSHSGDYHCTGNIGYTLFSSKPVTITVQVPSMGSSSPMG
# Key:
# [1] = target: T1, FcγRIIb extracellular domain with …; experiment: SPR, captured antibody, FcgR analyte
# Description: (§1) Relative binding activities were calculated for the results of analyzing interactions with the respective FcγRs according to the following method.
# [2] = target: T3, FcγRIa extracellular domain with C-terminal His tag (human, UniProt P12314 16-292); experiment: SPR, captured antibody, FcgR analyte
# T3 construct: also called FcgRIa
# T3 sequence (P12314 16-292): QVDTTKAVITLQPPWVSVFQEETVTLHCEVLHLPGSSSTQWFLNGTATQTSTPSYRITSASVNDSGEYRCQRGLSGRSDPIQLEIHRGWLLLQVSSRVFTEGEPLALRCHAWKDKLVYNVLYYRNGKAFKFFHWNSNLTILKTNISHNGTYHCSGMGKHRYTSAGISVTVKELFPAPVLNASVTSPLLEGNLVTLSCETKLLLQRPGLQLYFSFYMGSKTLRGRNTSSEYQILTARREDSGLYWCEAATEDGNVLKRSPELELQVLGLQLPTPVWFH
# Description: as §1
# [3] = target: T2, FcγRIIa type R; experiment: SPR (Biacore), captured antibody, soluble FcγR
Binder,relative binding activity [1],relative binding activity [2],Kd [3]
"IL6R-2B261/IL6R-L (antibody, human IgG1, kappa) heavy: QVQLQESGPGLVKPSETLSLTCAVSGHSISHDHAWSWVRQPPGEGLEWIGFISYSGITNYNPSLQGRVTISRDNSKNTLYLQMNSLRAEDTAVYYCARSLARTTAMDYWGEGTLVTVSSASTKGPSVFPLAPSSKSTSGGTAALGCLVKDYFPEPVTVSWNSGALTSGVHTFPAVLQSSGLYSLSSVVTVPSSSLGTQTYICNVNHKPSNTKVDKKVEPKSCDKTHTCPPCPAPDLLGGDSVFLFPPKPKDTLMISRTPEVTCVVVDVSHEDPEVKFNWYVDGVEVHNAKTKPREEQDNSTYRVVSVLTVLHQDWLNGKEYKCKVSNKALPAPIEKTISKAKGQPREPQVYTLPPSRDELTKNQVSLTCLVKGFYPSDIAVEWESNGQPENNYKTTPPVLDSDGSFFLYSKLTVDKSRWQQGNVFSCSVMHEALHNHYTQESLSLSP light: not shown",115 relative (IL6R-BF648/IL6R-L = 100),100 relative (IL6R-BF648/IL6R-L = 100),
"IL6R-BP082/IL6R-L (antibody, human IgG1, kappa) heavy: QVQLQESGPGLVKPSETLSLTCAVSGHSISHDHAWSWVRQPPGEGLEWIGFISYSGITNYNPSLQGRVTISRDNSKNTLYLQMNSLRAEDTAVYYCARSLARTTAMDYWGEGTLVTVSSASTKGPSVFPLAPSSKSTSGGTAALGCLVKDYFPEPVTVSWNSGALTSGVHTFPAVLQSSGLYSLSSVVTVPSSSLGTQTYICNVNHKPSNTKVDKKVEPKSCDKTHTCPPCPAPDLLGGDSVFLFPPKPKDTLMISRTPEVTCVVVDVSHEDPEVKFNWYVDGVEVHNAKTKPREEQYNSTYRVVSVLTVLHQDWLNGKEYKCKVSNKALPKPIEKTISKAKGQPREPQVYTLPPSRDELTKNQVSLTCLVKGFYPSDIAVEWESNGQPENNYKTTPPVLDSDGSFFLYSKLTVDKSRWQQGNVFSCSVMHEALHNHYTQESLSLSP light: not shown",136 relative (IL6R-BF648/IL6R-L = 100),74 relative (IL6R-BF648/IL6R-L = 100),
"IL6R-BP083/IL6R-L (antibody, human IgG1, kappa) heavy: QVQLQESGPGLVKPSETLSLTCAVSGHSISHDHAWSWVRQPPGEGLEWIGFISYSGITNYNPSLQGRVTISRDNSKNTLYLQMNSLRAEDTAVYYCARSLARTTAMDYWGEGTLVTVSSASTKGPSVFPLAPSSKSTSGGTAALGCLVKDYFPEPVTVSWNSGALTSGVHTFPAVLQSSGLYSLSSVVTVPSSSLGTQTYICNVNHKPSNTKVDKKVEPKSCDKTHTCPPCPAPELLGGDSVFLFPPKPKDTLMISRTPEVTCVVVDVSHEDPEVKFNWYVDGVEVHNAKTKPREEQDNSTYRVVSVLTVLHQDWLNGKEYKCKVSNKALPKPIEKTISKAKGQPREPQVYTLPPSRDELTKNQVSLTCLVKGFYPSDIAVEWESNGQPENNYKTTPPVLDSDGSFFLYSKLTVDKSRWQQGNVFSCSVMHEALHNHYTQESLSLSP light: not shown",122 relative (IL6R-BF648/IL6R-L = 100),50 relative (IL6R-BF648/IL6R-L = 100),
"IL6R-BP085/IL6R-L (antibody, human IgG1, kappa) heavy: QVQLQESGPGLVKPSETLSLTCAVSGHSISHDHAWSWVRQPPGEGLEWIGFISYSGITNYNPSLQGRVTISRDNSKNTLYLQMNSLRAEDTAVYYCARSLARTTAMDYWGEGTLVTVSSASTKGPSVFPLAPSSKSTSGGTAALGCLVKDYFPEPVTVSWNSGALTSGVHTFPAVLQSSGLYSLSSVVTVPSSSLGTQTYICNVNHKPSNTKVDKKVEPKSCDKTHTCPPCPAPELLGDDSVFLFPPKPKDTLMISRTPEVTCVVVDVSHEDPEVKFNWYVDGVEVHNAKTKPREEQYNSTYRVVSVLTVLHQDWLNGKEYKCKVSNKALPKPIEKTISKAKGQPREPQVYTLPPSRDELTKNQVSLTCLVKGFYPSDIAVEWESNGQPENNYKTTPPVLDSDGSFFLYSKLTVDKSRWQQGNVFSCSVMHEALHNHYTQESLSLSP light: not shown",152 relative (IL6R-BF648/IL6R-L = 100),19 relative (IL6R-BF648/IL6R-L = 100),
"IL6R-BP181/IL6R-L (antibody, human IgG1, kappa) heavy: QVQLQESGPGLVKPSETLSLTCAVSGHSISHDHAWSWVRQPPGEGLEWIGFISYSGITNYNPSLQGRVTISRDNSKNTLYLQMNSLRAEDTAVYYCARSLARTTAMDYWGEGTLVTVSSASTKGPSVFPLAPSSKSTSGGTAALGCLVKDYFPEPVTVSWNSGALTSGVHTFPAVLQSSGLYSLSSVVTVPSSSLGTQTYICNVNHKPSNTKVDKKVEPKSCDKTHTCPPCPAPDLLGGDSVFLFPPKPKDTLMISRTPEVTCVVVDVSHEDGEVKFNWYVDGVEVHNAKTKPREEQYNSTYRVVSVLTVLHQDWLNGKEYKCKVSNAALPKPIEKTISKAKGQPREPQVYTLPPSRDELTKNQVSLTCLVKGFYPSDIAVEWESNGQPENNYKTTPPVLDSDGSFFLYSKLTVDKSRWQQGNVFSCSVMHEALHNHYTQESLSLSP light: not shown",,108 relative (IL6R-BF648/IL6R-L = 100),
"IL6R-BP191/IL6R-L (antibody, human IgG1, kappa) heavy: QVQLQESGPGLVKPSETLSLTCAVSGHSISHDHAWSWVRQPPGEGLEWIGFISYSGITNYNPSLQGRVTISRDNSKNTLYLQMNSLRAEDTAVYYCARSLARTTAMDYWGEGTLVTVSSASTKGPSVFPLAPSSKSTSGGTAALGCLVKDYFPEPVTVSWNSGALTSGVHTFPAVLQSSGLYSLSSVVTVPSSSLGTQTYICNVNHKPSNTKVDKKVEPKSCDKTHTCPPCPAPDLLGGDSVFLFPPKPKDTLMISRTPEVTCVVVDVSDEDGEVKFNWYVDGVEVHNAKTKPREEQYNSTYRVVSVLTVLHQDWLNGKEYKCKVSNAALPKPIEKTISKAKGQPREPQVYTLPPSRDELTKNQVSLTCLVKGFYPSDIAVEWESNGQPENNYKTTPPVLDSDGSFFLYSKLTVDKSRWQQGNVFSCSVMHEALHNHYTQESLSLSP light: not shown",,125 relative (IL6R-BF648/IL6R-L = 100),

# Next, values leading:
relative binding activity [1],relative binding activity [2],Kd [3],Binder
,,2.1 nM,"IL6R-BP253/IL6R-L (antibody, human IgG1, kappa, S267E/L328F (EU numbering) in IL6R-B3; comparative control) heavy: QVQLQESGPGLVKPSETLSLTCAVSGHSISHDHAWSWVRQPPGEGLEWIGFISYSGITNYNPSLQGRVTISRDNSKNTLYLQMNSLRAEDTAVYYCARSLARTTAMDYWGEGTLVTVSSASTKGPSVFPLAPSSKSTSGGTAALGCLVKDYFPEPVTVSWNSGALTSGVHTFPAVLQSSGLYSLSSVVTVPSSSLGTQTYICNVNHKPSNTKVDKKVEPKSCDKTHTCPPCPAPELLGGPSVFLFPPKPKDTLMISRTPEVTCVVVDVEHEDPEVKFNWYVDGVEVHNAKTKPREEQYNSTYRVVSVLTVLHQDWLNGKEYKCKVSNKAFPAPIEKTISKAKGQPREPQVYTLPPSRDELTKNQVSLTCLVKGFYPSDIAVEWESNGQPENNYKTTPPVLDSDGSFFLYSKLTVDKSRWQQGNVFSCSVMHEALHNHYTQESLSLSP light: not shown"
,,350 nM,"IL6R-BP264/IL6R-L (antibody, human IgG1, kappa, E233D/G237D/P238D/H268E/P271G/Y296D/A330R (EU numbering) in IL6R-B3) heavy: QVQLQESGPGLVKPSETLSLTCAVSGHSISHDHAWSWVRQPPGEGLEWIGFISYSGITNYNPSLQGRVTISRDNSKNTLYLQMNSLRAEDTAVYYCARSLARTTAMDYWGEGTLVTVSSASTKGPSVFPLAPSSKSTSGGTAALGCLVKDYFPEPVTVSWNSGALTSGVHTFPAVLQSSGLYSLSSVVTVPSSSLGTQTYICNVNHKPSNTKVDKKVEPKSCDKTHTCPPCPAPDLLGDDSVFLFPPKPKDTLMISRTPEVTCVVVDVSEEDGEVKFNWYVDGVEVHNAKTKPREEQDNSTYRVVSVLTVLHQDWLNGKEYKCKVSNKALPRPIEKTISKAKGQPREPQVYTLPPSRDELTKNQVSLTCLVKGFYPSDIAVEWESNGQPENNYKTTPPVLDSDGSFFLYSKLTVDKSRWQQGNVFSCSVMHEALHNHYTQESLSLSP light: not shown"
,,390 nM,"IL6R-BP428/IL6R-L (antibody, human IgG1, kappa, Alterations in EU numbering, introduced into IL6R-B3) heavy: QVQLQESGPGLVKPSETLSLTCAVSGHSISHDHAWSWVRQPPGEGLEWIGFISYSGITNYNPSLQGRVTISRDNSKNTLYLQMNSLRAEDTAVYYCARSLARTTAMDYWGEGTLVTVSSASTKGPSVFPLAPSSKSTSGGTAALGCLVKDYFPEPVTVSWNSGALTSGVHTFPAVLQSSGLYSLSSVVTVPSSSLGTQTYICNVNHKPSNTKVDKKVEPKSCDKTHTCPPCPAPDLLGDDSVFLFPPKPKDTLMISRTPEVTCVVVDVGEEDGEVKFNWYVDGVEVHNAKTKPREEQYNSTYRVVSVLTVLHQDWLNGKEYKCKVSNKALPRPIEKTISKAKGQPREPQVYTLPPSRDELTKNQVSLTCLVKGFYPSDIAVEWESNGQPENNYKTTPPVLDSDGSFFLYSKLTVDKSRWQQGNVFSCSVMHEALHNHYTQESLSLSP light: not shown"

# Reference: patent publication US20210261648A1 (published 2021)
